Reference: the supplement of paper PMC10567573

B1: TBX5 (parent)
chain: FHEVGTEMIITKAGRRMFPSYKVK
B2: TMEM175 (parent)
chain: SCTIIFLASIFQLAMWTTALLHQA

Variants of: B1
Experiment: protein stability index of a GFP-peptide fusion (GPS, HEK-293T) (PSI 1-6); higher = more stable
Conditions: c terminus: a fixed tail appended
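Also: lentivirally expressed fusions sorted by FACS into six bins by GFP to DsRed ratio, PSI derived from sequencing read proportions per bin multiplied by bin number.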

Protein stability index, by site and new letter:
T6: L 3.1, M 1.37, G 2.9, K 2.23, F 2.76, Y 1.56, D 2.25, H 2.01, S 2.21, N 1.68, P 1.3, E 3.65, R 1.62, C 1.52, V 2.07, A 1.93, Q 2.2, W 2.13
R15: E 1.74, H 2.14, I 1.83, K 1.92, F 1.91, A 2.18, G 1.77, D 2.71, C 2.63, L 1.81, M 1.59, N 2.29
T11: N 2.46, Y 1.02, F 1.71, V 1.76, E 2.36, A 3.29, L 2.14, K 2.59, S 3.49, R 2.47, C 2.44, I 1.19, D 2.13, Q 1.88, P 2.28, M 1.53
M8: K 2.68, Y 1.87, L 1.66, E 3.03, C 2.09, G 1.93, V 1.43, T 2.2, S 2.34, W 2.07, F 1.59, A 2.27, N 2.38, H 2.33, D 3.29, Q 2.06, R 1.79, P 2.08, I 1.33
I10: V 2.14, P 2.44, C 2.41, S 3.26, L 2.21, M 1.63, Y 1.48, K 2.84, F 3.28, H 2.25, T 1.91, N 2.03, Q 2.45, R 2.21, W 1.76, A 1.68, E 2.66, D 3.5
H2: K 2.24, V 2.38, M 2.03, W 1.57, G 2.48, L 2.07, N 2.93, E 3.09, F 2.39, R 2.53, Y 2.41, T 1.85, I 1.69, D 2.67, Q 1.84, A 2.04, C 1.72, S 2.53, P 2.27
I9: M 2.19, C 1.5, R 2.68, P 2.75, A 2.38, F 2.52, Q 2.5, D 2.38, L 1.79, V 3.05, T 2.84, N 2.46, Y 1.8, G 2, E 3.06, S 2.29, K 2.48
F1: K 3.54, P 3.5, W 2.46, E 3.68, T 3.13, H 2.41, C 2.18, Q 3.25, L 2.3, S 3.09, Y 2.55, A 3.81, R 2.58, I 2.44, M 3.02, N 3.4, V 2.58, G 3.65, D 3.1
E3: S 2.8, R 2.58, N 1.03, A 1.87, Q 1.8, K 1.45, V 2.58, D 1.26, P 2.42, T 1.03, I 4.17, F 2.39, C 2.54, H 1.06
A13: Q 2.65, Y 1.55, M 1.3, V 2.02, H 2.11, C 2.03, W 1.93, D 2.57, F 1.97, G 1.84, N 2.27, R 2.65, L 2.61, E 2.68, P 1.93, S 1.87, K 2.44, T 1.68
E7: N 1.88, C 2.07, Q 1.81, H 1.55, G 2.98, K 1.92, V 1.84, M 1.49, P 1.71, A 2.82, L 1.93, W 2.06, S 1.66, D 1.81, T 1.87
V4: E 2.23, Q 1.96, M 1.6, H 1.85, N 2.05, P 1.86, C 2, R 1.42, L 2.09, F 2.65, D 2.48, Y 2.46, I 2.41, S 1.95, A 1.97, T 2.34, K 1.98, G 2.32
K12: H 1.8, E 1.83, G 2.1, Y 2.91, Q 1.73, D 2.57, T 1.78, L 2.81, F 2.76, S 2.51, V 2.68, C 1.31, A 2.52, I 1.6, N 2.1, P 2.12, R 2.02
G5: C 2.02, Q 2.13, N 1.5, L 1.92, I 3.47, T 1.92, V 1.23, K 1.88, A 2.44, H 1.92, D 2.58, P 2.05, M 1.69, S 2.76, Y 1.49
G14: A 2.6, M 1.49, R 1.64, S 1.83, N 2.04, K 1.68, P 2.86, T 2.42, F 2.41, W 1.95, Q 2.17, L 1.71, V 1.62, I 1.66, E 2, H 1.73, D 1.48, Y 2.17

Variants of: B2
Experiment: as above
Conditions: c terminus: a fixed tail appended

Protein stability index of substitutions, site by site:
C2: I 1.73, M 2.59, K 3.34, W 2.26, V 3.64
L20: S 3.1, G 1.94, R 3.39
L21: H 3.3, R 3.98
L7: C 3.2, W 3.1, V 3.55, S 2.77, H 3.64
I5: V 1.82, H 3.05, R 1.6
S9: M 2.49
T18: E 2.78, F 3.03, G 1.6, H 2.85, K 2.31
A24: Q 2.56, N 2.45, S 1.55, W 3.03, T 3.01
Q12: F 2.61, D 3.29, V 2.25
Q23: W 3.32, P 3
A19: L 2.11, T 3.07, E 2.73
T3: V 2.11, I 3.33, H 2.04, F 2.75, Y 4.1
A8: L 3.28, Y 3.74, H 3.28
W16: F 1.76, N 3.23, S 2.58
I10: G 2.65
A14: L 4.29, C 3.07, M 3.19, Q 4.22, S 2.58, G 3.94, R 3.53
T17: P 2.64, D 3.83, S 2.31
F6: S 1.02, T 4.09, K 2.52
I4: K 3.01, Y 2.23
L13: M 2.97, T 2.49, C 2.76
M15: I 2.79, S 2.48, R 1.69, Y 2.97
H22: R 2.5, Q 2.97, F 2.6, P 3
S1: L 2.96, Q 1.64, R 4.91
F11: A 3.92, W 2.6, V 2.09
